Residue numbers refer to the chain shown, from its start.
B1: RA120 (nucleic acid)
DNA: GCGCGTCCCCGGAATACCAGCATCGTCTTGATGCCCTTGGAAGTCCGGTGGATTCGCGGAAACGCGTACATCCAGCTGACGAGTCCCAAATAGGACGAAACGCGC
modifications: expressed or natural sequence
B2: RA141 (nucleic acid)
DNA: GCGCGTCCTGGATTCGCGGAAACGCGTACATCCGGAATACCAGCATCGTCTTGATGCCCTTGGAAGTCCGGCCAGCTGACGAGTCCCAAATAGGACGAAACGCGC
modifications: expressed or natural sequence
B3: RA127 (nucleic acid)
DNA: GCGCGTCCTGGATTCGCGGAAACGCGTACATCCAGCTGACGAGTCCCAAATAGGACGAAACGCGCCGGAATACCAGCATCGTCTTGATGCCCTTGGAAGTCCGGC
modifications: expressed or natural sequence
B4: RA132 (nucleic acid)
DNA: GCGCGTCCTGGATTCGCGGAATACCAGCATCGTCTTGATGCCCTTGGAAGTCCGGAAACGCGTACATCCAGCTGACGAGTCCCAAATAGGACGAAACGCGC
modifications: expressed or natural sequence
B5: RA129 (nucleic acid)
DNA: GCGCGTCCTGGATTCCACTTCGGGTACATCCAGCTGACGAGTCCCAAATAGGACGAAACGCGC
modifications: expressed or natural sequence
B6: RA136 (nucleic acid)
DNA: GCGCGTCCTGGATTCGCGGAAACGCGTACATCCAGCTGACGAGTCCCAAATAGGACGAAACGGAGAATACCAGCATCGTCTTGATGCCCTTGGAAGTCTCCGC
modifications: expressed or natural sequence
B7: RA134 (nucleic acid)
DNA: GCGCGTCCTGGATTCGCGGAAACGCGTACATCCAGCTGACGAGTCGGAATACCAGCATCGTCTTGATGCCCTTGGAAGTCCGCCCAAATAGGACGAAACGCGC
modifications: expressed or natural sequence
B8: RA142 (nucleic acid)
DNA: GCGCGTCCTGGATTCGCGGAAACGCGTACGGAATACCAGCATCGTCTTGATGCCCTTGGAAGTCCATCCAGCTGACGAGTCCCAAATAGGACGAAACGCGC
modifications: expressed or natural sequence
B9: RA139 (nucleic acid)
DNA: GGAGAATACCAGCATCGTCTTGATGCCCTTGGAAGTCTCCGCGTCCTGGATTCGCGGAAACGCGTACATCCAGCTGACGAGTCCCAAATAGGACGAAACGCGC
modifications: expressed or natural sequence
B10: RA137 (nucleic acid)
DNA: GCGCGTCCTGGATTCGCGGAAACGCGTACGAGAATACCAGCATCGTCTTGATGCCCTTGGAAGTCTCATCCAGCTGACGAGTCCCAAATAGGACGAAACGCGC
modifications: expressed or natural sequence
B11: RA135 (nucleic acid)
DNA: GCGCGTCCTGGATTCGCGGAAACGAGTGATACCAGCATCGTCTTGATGCCCTTGGCAGCACTCGTACATCCAGCTGACGAGTCCCAAATAGGACGAAACGCGC
modifications: expressed or natural sequence
B12: RA140 (nucleic acid)
DNA: GCGCGTCCTGGATTCGCGGAAACGCGTACATCCAGCTGACGAGTCCGGAATACCAGCATCGTCTTGATGCCCTTGGAAGTCCGGCCCAAATAGGACGAAACGCGC
modifications: expressed or natural sequence
B13: RA124 (nucleic acid)
DNA: GCGCGTCCTGGATTCGCGGAAACGCGTACATCCAGCTGACGCGGAATACCAGCATCGTCTTGATGCCCTTGGAAGTCCGAGTCCCAAATAGGACGAAACGCGC
modifications: expressed or natural sequence
B14: RA143 (nucleic acid)
DNA: B13 DNA with C42A, G44T, A45G, A73C, T76C, C77A, G79T
modifications: expressed or natural sequence
B15: RA121 (nucleic acid)
DNA: GCGCGTCCTGGATTCGAGAATACCAGCATCGTCTTGATGCCCTTGGAAGTCTCGCGGAAACGCGTACATCCAGCTGACGAGTCCCAAATAGGACGAAACGCGC
modifications: expressed or natural sequence
B16: RA013 (nucleic acid)
DNA: GCGCGTCCTGGATTCGCGGAAACGCGTACATCCAGCTGACGAGTCCCAAATAGGACGAAACGAGAATACCAGCATCGTCTTGATGCCCTTGGAAGTCTCGC
modifications: expressed or natural sequence
B17: RA122 (nucleic acid)
DNA: GCGCGTCCTGGATTCGCGGAAACGCGTACATCCAGCTGACGAGTCCCAAATAGGACGAGAATACCAGCATCGTCTTGATGCCCTTGGAAGTCTCGAAACGCGC
modifications: expressed or natural sequence
B18: RA012 (nucleic acid)
DNA: GCGCGTCCTGGATTCGCGGAAACAGAATACCAGCATCGTCTTGATGCCCTTGGAAGTCTGCGTACATCCAGCTGACGAGTCCCAAATAGGACGAAACGCGC
modifications: expressed or natural sequence
B19: RA128 (nucleic acid)
DNA: GCGCGTCCTGGATTCGCGGAAACGCGTAAGTGATACCAGCATCGTCTTGATGCCCTTGGCAGCACTCATCCAGCTGACGAGTCCCAAATAGGACGAAACGCGC
modifications: expressed or natural sequence
B20: RA126 (nucleic acid)
DNA: GCGCGTCCTGGATTCGCGGAAACGCGTACAAGAATACCAGCATCGTCTTGATGCCCTTGGAAGTCTTCCAGCTGACGAGTCCCAAATAGGACGAAACGCGC
modifications: expressed or natural sequence
B21: RA138 (nucleic acid)
DNA: GCGCGGAATACCAGCATCGTCTTGATGCCCTTGGAAGTCCGCGTCCTGGATTCGCGGAAACGCGTACATCCAGCTGACGAGTCCCAAATAGGACGAAACGCGC
modifications: expressed or natural sequence
B22: RA123 (nucleic acid)
DNA: GCGCGTCCTGGATTCGCGGAAACGCGTCGGAATACCAGCATCGTCTTGATGCCCTTGGAAGTCCGACATCCAGCTGACGAGTCCCAAATAGGACGAAACGCGC
modifications: expressed or natural sequence
B23: RA130 (nucleic acid)
DNA: GCGCGTCCTGGATTCGCGGAAACGCGTACATCCAGCTGAGAATACCAGCATCGTCTTGATGCCCTTGGAAGTCTCGACGAGTCCCAAATAGGACGAAACGCGC
modifications: expressed or natural sequence
B24: RA131 (nucleic acid)
DNA: GCGCGTCCTAGAATACCAGCATCGTCTTGATGCCCTTGGAAGTCTGGATTCGCGGAAACGCGTACATCCAGCTGACGAGTCCCAAATAGGACGAAACGCGC
modifications: expressed or natural sequence
B25: RA119 (nucleic acid)
DNA: GCGCGTCCTGGATTCGCGGAAACGCGTACATCCAGAGAATACCAGCATCGTCTTGATGCCCTTGGAAGTCTCTGACGAGTCCCAAATAGGACGAAACGCGC
modifications: expressed or natural sequence
B26: RA118 (nucleic acid)
DNA: GCGCGTCCTGGATTCGCGGAAACGCGTACATCCAGCTGACGAGTCCCAAATAGGACGAGAGAATACCAGCATCGTCTTGATGCCCTTGGAAGTCTCAACGCGC
modifications: expressed or natural sequence
B27: RA125 (nucleic acid)
DNA: GCGCGTCCTGGATTCGCGGAAACGCGTACATCCAGCTGACGAGTCCCGGAATACCAGCATCGTCTTGATGCCCTTGGAAGTCCGGCCAAATAGGACGAAACGCGC
modifications: expressed or natural sequence
B28: RA133 (nucleic acid)
DNA: GCGCGAGAATACCAGCATCGTCTTGATGCCCTTGGAAGTCTCGTCCTGGATTCGCGGAAACGCGTACATCCAGCTGACGAGTCCCAAATAGGACGAAACGCGC
modifications: expressed or natural sequence

The molecules below were run on Renilla luciferase RNA (assay: Barcoded aptazyme variant library screen: un-cleaved Renilla luciferase RNA by barcode read counts, HEK293-T cells). Conditions: un-cleaved Renilla luciferase RNA, HEK293-T cells cultured with 1 mM theophylline (ON) over without theophylline (OFF); barcode read counts, triplicate.
Format: cell-based
Outline: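 Barcode sequencing of cDNA versus DNA, normalized per aptazyme, gave the un-cleaved Renilla luciferase RNA fraction and fold-change with versus without theophylline (triplicates). Library: T3H48 ribozyme with one of seven theophylline aptamer variants inserted at each position, placed in the Renilla 3′ UTR of a dual-luciferase vector.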
With B1 the “Fold change in RNA expression between the ON state and the OFF state” value (“Fold change” for short) was 1.5 fold.
For B2, the “Fold change” value was 1.4 fold.
In the case of B3, the “Fold change” value is reported as 1.4 fold.
For B4, the “Fold change” value was 1.4 fold.
In the case of B5, the “Fold change” value is reported as 1.4 fold.
B6 was tested, and the “Fold change” value was 1.4 fold.
In the case of B7, the “Fold change” value is reported as 1.4 fold.
For B8, the “Fold change” value was 1.4 fold.
B9 was tested, and the “Fold change” value was 1.4 fold.
With B10 the “Fold change” value was 1.4 fold.
With B11 the “Fold change” value was 1.4 fold.
In the case of B12, the “Fold change” value is reported as 1.4 fold.
For B13, the “Fold change” value was 1.5 fold.
With B14 the “Fold change” value was 1.4 fold.
For B15, the “Fold change” value was 1.5 fold.
In the case of B16, the “Fold change” value is reported as 3.3 fold.
B17 was tested, and the “Fold change” value was 1.5 fold.
In the case of B18, the “Fold change” value is reported as 3.4 fold.
B19 was tested, and the “Fold change” value was 1.4 fold.
In the case of B20, the “Fold change” value is reported as 1.5 fold.
B21 was tested, and the “Fold change” value was 1.4 fold.
With B22 the “Fold change” value was 1.5 fold.
For B23, the “Fold change” value was 1.4 fold.
For B24, the “Fold change” value was 1.4 fold.
B25 was tested, and the “Fold change” value was 1.5 fold.
For B26, the “Fold change” value was 1.5 fold.
B27 was tested, and the “Fold change” value was 1.5 fold.
With B28 the “Fold change” value was 1.4 fold.

Reference: US20260167959A1, “APTAZYME-BASED REGULATABLE GENE EXPRESSION SYSTEMS” (REJUVENATE BIO INC, priority 2022, published 2026)
